# Assay results as given in the nanobody polyreactivity screen of Harvey et al. (2022).
# Experiment: yeast display, Sf9 membrane polyspecificity reagent, FACS + sequencing; frameworks hold sequencing errors
# Procedure, shortened: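 Using colony PCR, genes from sorted yeast display clones were amplified, then sequenced on MiSeq at 2 × 250 and filtered by CDR length. The clones had been stained with 10% biotinylated, detergent-solubilized Sf9 membrane reagent for 1 hour at 4 °C and sorted by FACS into low and high (top ~1%) gates on anti-HA and streptavidin fluorescence. Polyreactivity labels come from the gate of origin.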
row,Sequence,polyreactivity (PSR sort gate)
1,QVQLVESGGGLVQAGGSLRLSCAASGSTFRLYAMGWYRQAPGKEREFVAAISFRGGSTYYADSVKGRFTISRDNAKNTVYLQMNSLKPEDTAVYYCNARVRVRLGRNWSSYYYWGQGTQVTVSS,high polyreactivity
2,QVQLVESGGGLVQAGGSLRLSCAASGFTFYLYGMGWYRPAPGKERELVAGIDSDGRTNYADSVKGRFTISRDNAMNTVYLQMNSLKPEDTAVYYCAVEWAGGYDYYYWGQGSQVTVSS,high polyreactivity
3,QVQLVESGGGLVQAGGSLRLSCAASGTIFVPYAMGWYRQAPGKERELVAVITSGGSTYYADSVKGRFTISRDNAKNTVYLQMNSLNPEDTAVYYCIADLYYVWSTLSQFDYWGQGTHVTVSS,low polyreactivity
4,QVQLVESGGGLVQAGGSLRLSCAASGITFEPYAMGWDREAPGKEREFVSDNTWSGGSTYYADSVKSRFTISRDNANNTVYLQMNSLKPEDTAVYYCAADGWTSYWSDYWGQGTQVTVSS,low polyreactivity
5,QVQLVESGGGLVQAGGSLRLSCAASGSIFRRNTMGWYRQAPGKERELVAAITFTGGRTYYADSVKGRFTISRDNAKNTVYLQMNSLKPEDTAVYYCNRVTAYYPTKFDYWGQGTQVTVSS,high polyreactivity
6,QVQLVESAGGLVQAGGSLRLSCAASGAIFGGYAMGWYRQAPGKERELVAAISSSGGSTYFADSVKGRFTISRDNEKNTVYLQMNSLKPEDTAVYYCAAKYQRRYYYWGQGTQVTVSS,high polyreactivity
7,QVQLVESGGGLVQAGGSLRLSCAASGGTFDWNTMGWYRQAPGKERELVASITSGGRTNYADSVKGRFTISRDNAKNTVYLQMNSLKPEDTAVYYCAKYRRSAYPWQTWVGQKFDYWGQGTQVTVSS,low polyreactivity
8,QVQLVESGGGLVQAGGSLRLSCAASGFTFFVNAMGWYRQAPGKERELVAAISIRSGGRTYYADSVKGRFTISRDNAKNTVYLQMNSLKPEDTAVYYCAAESSRPEHTYHYYRFLFDYWGQGTQVTVSS,low polyreactivity
9,QVQLVESGGGLVQAGGSLRLSCAASVYTSNYYAMGWYRQAPGKEREFVAAITASSVSTYYADSVKGRFTISRDNAKNTVYVQMNSLKPEDTAVYYCAVVYISYTSWLWVYWLVDFDYWGQGTQVTVSS,low polyreactivity
10,QVQLVESGGGLVQAGGSLRLSCAASGSIFRYYAMGWYRQAPGKERELVAAIRRSGASTYYADSVKGRFTISRDNAKNTVYLHMNSLKPEDTAVYYCAASSFNNGHRYDYWGQGTQVTVSS,high polyreactivity
11,QVHLVESGGGLVQAGGSLRLSCAASGSTFRFYAMGWYRQAPGKERELVATISRTGSTNYADSVKGRFTISRDNAKNTVYLQMNSLKPEDTAVYYCAAQRRRYPGYVQDDYWGQGTQVTVSS,high polyreactivity
12,QVQLVESGGGLLQAGGSLRLSCAASGSIFNKYAMGWYRQATGKEREFVAAITQGGGRTYYADSEKVRFTISRDNAKNTDYLQMNILKPEDTAVYYCNYNFNYPYYRYGYWGQGTQVTVSS,high polyreactivity
13,QVQLEESGGGLVQAGGSLRISCAASGRTIGPYAMGWYRQARGKERELVAAISGGGSTNYADSVKGRFTISRDNAKNSDYLQMNSLKPEDTAVYYCNTEYPISGEEEYWGQGTHVTVSS,low polyreactivity
14,QVQLVESGGGLVQAGGSLRLSCAASVIIYLDNAMVWYRQAPRKEMEMVADITSSGGSTYYADSVKGRFTISRDNAKNTVSLQMNSLKPEDTAVYYCAATRPSYNDAESDYWGQGTQVTVSS,low polyreactivity
15,QVQLVESGGGLVQAGGSLRLSCAASGRILYKYSMGWYRQAPGKERELVAAINRSGGRTYYADSVKGRFTISRDNAKNTVYIQMNSLKPEDTAVYYCAARNPTSYGQFDYLGQGTQVTVSS,high polyreactivity
16,QVQLVESGGGLVQAGCSLRLSCAASGFTFFRNAMGWYRQAPGKERELVAAISGSGGSTYYADSVKGRFTISRDNAKNTVYLQMNSLKPEDTAVYYCATYSYPAKVREAYNYWGQGTQVTVSS,low polyreactivity
17,QVQLVESWGGLVQAGGSLRLSCAASGFTFRGYARGWYRQAPGKERELVAAISRSGGSTNFADSVKGRFTISRDNAKNTVYLQMNSLKPEDTAVYYCAAGWNPYDYWGQGTQVTVSS,high polyreactivity
18,QVQLVESGGGLLQAGGTLRLSCAASGFIFGRYAMGWYRQAPGKERELVADISWNGGSTYYADYVKGRFTISRDNAKNTVYLQMNSLKPEDTAVYYCAADYYWASFKYPYLRPYDYWGQGTQVTVSS,high polyreactivity
19,QVQLVESGGGLVQAGGSLRLTCAAYGRIYINTMGWYRQPPGKERELVAAITWSGGNTYYADSVKGRFTISRDNAKNTVYLQMNSLKPEDTAVYYWAVGGYLRSVSYIRLGNYYWGQGTQVTVSS,high polyreactivity
20,QVQLVESGGGLVQAGGSLRLSCAASGRIFFDYAMGWYRQAPGKERELVAVITSSGSSTYYADSVKGRFTISRDNAKNTVYLQMNSLKPEDTAVYYCNAARLYSGLWYGYDYWGQGTQVTVSS,high polyreactivity
21,QVQLVESGGGLVQAGGSLRLSCAASGRTFRYYAMGWYRQAPGKERELVATISSGGSTNYADSVKGRFTISRDNAKNTVYLQMNSLKPEDTAVYYCARYSYRGTNVRYDYWGQGTQVTVSS,high polyreactivity
22,QVQLVESGGGLVQAGGSLRLSCAASGLSSLRMLWDGRDRRLGKKGSWLPLITSGGDSTNYADSVKGRFTISRDNAKNTVYFQMNSLKPEDTAVYYCAADLDYPYGYLGQGTQVTVSS,low polyreactivity

row,Sequence,polyreactivity (PSR sort gate)
1,QVQLVESGGGLLQAGGSLRLSCAASGSIFRRNAMGWYRQAPGTERELVACISGGGSTYYADSVKGRFTKSRDNAKNNVYLQLNSLNPEDTAVYYCATDKHYRWAVFDYWGQGTQVTVSS,low polyreactivity
2,QVQLVESGGGLVQAGGSLRLSCAASGRLFHPYAMGWYRQAPGKERELVARITTSGGSTSYADSVKGRFTISRDNAKNTVYLQMNSLKPEDTAVYYSAADRARYYSEYDYWGQGTQVTVSS,low polyreactivity
3,QVQLQESGGGLVQAGGSLRLRCAASRNISGSSDLGWYHQAPGKEREFVASMTSGGTTYYADSVKGRFTISRDNAKISEYLQMNSLKPEDTAVYYCAVGDPADAEFGYWGQGTQVTVRS,low polyreactivity
4,QVQLVESGGGLVQAGGSLRLSCAASGSTFTGYTMGWYRQAPGKEREFVAAISSRGGSTYYADSVKGRFTISRDNAKNTVFLQMNSLKPEETAVYYCAAKVWARVDGRQFRMEYWGQGTQVTVSS,high polyreactivity
5,QVQLVESVGGLVQAGGSLRLICAASGSIFIGYAMGWYRQAPGKERELVAAISNSGGRTYYADSVKGRFTISRDYAKNTVYLQMNSLKPDDTAVYYCAARLRYRGRRYDYWGQGTQVTVSS,high polyreactivity
6,QVQLVESGGGIVQAGGSLRLSCAASGYTIDSYGMGWYRQAPGKERELVAAIDWSGGSTYYADSVKGRFTISRDNAKNTVYLQMNSLKPEDTAVYYCAARRGLRLFAYRHGYWGQGTQVTVSS,low polyreactivity
7,QDQLVESGGGLVQAGGSLRLSCAASGSIFRAYAMGRYRQPPGKERELVAAIIWTDGSTYYADSVKGRFTISRDNAKNTVYLQMNSLKPEDTAVYYCAKDSIARHNYWGQGTQVTLSS,low polyreactivity
8,QDQHVESAGGLVQAGGSLRLSCAATGFTFYYNPMRWYRQAPGKERELFASITRSGGPTYYADSVKGRFTISRDIAKHTVYLQMNSLKPEDTAVYYCARRYPGGYYWGHGTQVTVSS,high polyreactivity
9,QVQLVESGGGLVQAGGSLRLSCAASGSIIIGNTMGWYRQAPGKERELVATIRRSGSRTYYADSVKGRFTISRDNAKNTVYLQMNSLKPEDTAVYYCAADRLRTSGYKTIYDYWGQGTQVTVSS,low polyreactivity
10,QVQLVESGGGLVQAGGSLRLSCAASGYIFLAYAKGWYRQAPGKERELVADNTYADSVKGRFTISRDNAKNTVYLKMNSMKPEDTAVYYCNADEVYDEYSYDYWGHGTQVTVSS,low polyreactivity
11,QVQLVESGGGLVQAGGSLRLSCAASGFSFLAYAMGWYRQAPGKERELVAAINSSDGTTHYADSVKGRFTISRDNAKNTVYLQMNSLKPEDTAVYYCAVSQVRTGEGYHYWGQGTQVTVSS,low polyreactivity
12,QVQLVESGGGLVQAGGSLRLSCAASGFTFGLYTMGWYRQAPGKERELVAAITSSGARTYYADSVKGRFTISRDNAKNTVNLQMNSLKPEDTAVYYCNAGKRGSTYYYWGQGTQVTVSS,high polyreactivity
13,QVQLVESGGGLVQAGGSLRLSCASSGFIFRWYTMGWYRQAPGKERELVAAISWSSGSTSYADSVKGRFTISRDNAKNTVYLQMNSLKPEDTAVYYCAAVWRTASTQYYYWGQGTQVTVSS,high polyreactivity
14,QVQLVESGGGLVQAGVSLRLSCAASGFTFYYYAMVRNRQAPGKERELVAAITGSGGGTYYADSVKGRFTISRDYAKNTVYLQKNSLKPEDTAVYYCNALYVSTSDFVYWGQGTQVTVSS,high polyreactivity
15,QGQLEESGGGLVQAGGSLRLSCAASGSLFPSYVMGWYRQAPGKERELVAAIRTSGDRTYYADSVKGRFTNSRDNAKNTVYLQMNCLKPEDTAVYYCAAPYGHKSPRMYYWGQGTQVTVSS,high polyreactivity
16,QVQLVESGGGLVQAGGSLRLSCAASGRTLFGYAMGWYRQAPGKERELVAAITYGATSTYADSVKGRFTISRDNAKNTVYLQMNSLKPEDTAVYYCNAYTPTDGFDYWGQGTQVTVSS,low polyreactivity
17,QVQLVQSGGGFVQAGGSLRVSCAASGRTFGVYAMGWYRQAPGKEREFVAAISYSGGRTYYADSVKGRFTISRDNAKNTVYLQMNSLKPEDTAVYSCNARAFPYYRRFDYWGQGTQVTVSS,high polyreactivity
18,QVQLVESGGGLVKAGGSLRLSCAASGGTFNRNAMGWYRQAPAKERELVAAICSSGGRTYYADSVKGRFTISRDNAKNTVYLQMNSLKPEDTAGYYCAAGRKGHGGAYDSWGQGTQVTVSS,high polyreactivity
19,QVQLVESGGGLVQAGGSLRLSCAASGFIFGRYAMGWYRQAPGKERELVAAISRGGGSTRYADSVKGRFTISRDNAKNTVYLQMKSLKPEDTAVYYCAAYRYWGRTSYSYDYWGQGTQVTVSS,high polyreactivity
20,QVQLVESGGGLVQAGGSLRLSCAASGYTFRSYTMGWYRQAPGKERELVAAITSRGTSTYYADSVKGRFTISRDNAKNTVYLQMNSLKPEDTAVYYCAAPIYNGYASWQVYYWGQGTQVTVSS,high polyreactivity
21,QVQLVESGGGLVQAGGSLRLSCAASGSTFRYYAMGWYRQAPGKERELVAAIRSGGGTYYADSVKGRFTISRDNAKTTVYLQMNSLKPEDTAVYYCAARSYSRRVSYYYWGQGTQVTVSS,high polyreactivity
